We go through one molecule from article PMC4963854 (2016).

The target in one experiment is Fluo-Ia (Streptococcus pyogenes). Nature of the experiment: fluorescence polarization. For orientation: In fluorescence polarisation assays a small probe gives low polarisation when free and higher when bound to something large.
Another experiment has as its target Fluo-IIa (Streptococcus pyogenes). Nature of the experiment: fluorescence polarization.

B1: Epsilon antitoxin (protein)
chain: AVTYEKTFEIEIINELSASVYNRVLNYVLNHELNKNDSQLLEVNLLNQLKLAKRVNLFDYSLEELQAVHEYWRSMNRYSKQVLNKEKVA
As to B1, the figures for the Kd with Fluo-Ia and with Fluo-IIa were 74.5 nM and 170 nM, respectively.
